Source: the domain aggregation screens of Martell et al. (2025)

experiment: soluble fraction after stress (log2 fold change); higher = more stays soluble; pooled small domains, quantitative proteomics; settings: stress: 50 degC
Procedure, shortened: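 Pooled custom libraries of small protein domains were measured in a high-throughput format, with quantitative proteomics as the read-out. Each library was stressed at 50°C. Aggregation propensity is given as the base-two logarithm of the fold change in how much of each protein stays soluble after the stress. Higher values mean a larger share of the protein remains in solution.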

Sequence	soluble fraction (log2)
HMTASSYMGMQLGRLEELLKKEVLSLSEKTELKDLISDFDKIPEVVSPKIIGRYLQLKNQHFAKINA	-0.0763
HMKLINEDLNNEIVFEENKVNLLVIENKKKFVQFIQEIIKQINGDEGKFSLFDINTELKIHDKIDII	0.185
HMNINLDINTYTVKELEKLLKLEVPYSDNNVFEKKNLMVKMIQTSTIAETKKEELYIFLDNIYNRLTNNLE	-1.35
HMPPTSADGIEKYLASGMIRGVGPVYAKKLVSAFGDKVFDIIEAAPHQLQEVEGIGRVRAASILAAWAEQ	0.134
HMIPKDKQAWIALTYIYGVGRTTSMEILKKAQVGEEIRMKDLTEEEVTRIRNIIDKEYEVEGDLRRN	-0.292
HMYDASELNKALEEAKKLDLNNYTEESSEALKNAISKAEEALLSKDKETINSALEELNKAMDSL	0.112
HMRKYKIKEELPDNIYKIIQDNPGIVQKDIYDILGREYQQNISSYIYSMDKNGVIKRDKHGNSYKLYL	-0.318
HMTKQIILVHVAGKVKKPDVYPLLQGSRVADAIKAAGGAKKGVELNDINLARVLIDGEQVFVGYVPE	-1.58
HMDFTISDADFHRLVQFIQQNYGVALSKKRQLISSRLSHSLRELGYKDFRTFLEHLFSTRDPADLELVLNK	-0.989
HMGSYVVQLGAFAIRANAEKLAREVDGSIATSGRFSLVRVGPFTSRGQAEQALAKLRARGYSDALIHSL	-0.224
HMAPRLTERERQVLQLIAEGLTSMQIGDRLHIAASTVDVHRRNLMRKLDLHNVADLTRYAITQGISP	-0.0624
HMVIGKHSGSHTLVNDLAKRGITLDKEESATLLEMVRKAAVGLHRSISSDELYGLYKDMKSGQDPFEDS	0.0935
HMNTKLSYSDLIEKIEAGQVEKVELDAGGSSAIVKLKNDNIEKRVNVPSIDNLMENLQDNMKTGNISVTE	0.42
HMILKNVPSNLVNQRLDKVATVLFQTYSRTQIKKWILEGRLLVNGEISNPKDLVNENDEIEINPI	-1.6
HMLAKRYLVYGSGSLNSAYPDTKNIAYGIDSGKGFFLVGILTENEASKLKLKGYYVIEDFPLDFH	-1.43
HMLNPMILLTKGGENIRLDKFLSSHLSDLSRTQIQKMVKEGLVLVNGEPSKVGLKLDGSETIQYTLPK	-0.00634
HMTHHGHSIKRIRDMLGIKQETLAAELNMTQQAFSKLEQKEQIEDEMLDKIAKILHVSTEALKT	-0.00336
HMVLTYYSVLGVKTDATTEEIKSTYKQLAIRNHPDRGGSEEVMKMINLAAEILSDPKSRKEYDLSLDA	-2.87
HMTPPLSKIRNMTPDQQRSSVIEARKKGYNLLQLEGLAKAQGATPADLLVLRNAWAQSEFDQKR	0.149
HMEREQPFAVTEAYRGMRLDRFLQAMLPRMSRAAIQDAIDNRVRLGSGRAAKASLRPAIGDTVFFGQRI	-0.822
HMAEPLYKQVKNKIIQNLTSDEWKPGSVIPSETKLAETYGVGVSTIRMAIGELVAARILIRRQGKGTFVSS	-1.85
HMPRYSGMFAAWLHKALARMGKSMSDSARSAFTERVELDYSSANNELQKLSLLVGDRKVITEADVMRAIG	-0.292
HMNATPDMERYWASSAAEGRALEPLYAVSRGDGGEPLWWSPSRAQAERMAREEGGPLTVDRIDPP	-0.0411
HMLADIGGRIADLRREVGLTQGELAEKADISVVHLSNIELGKKTPGLSTLIRIAEALDVATDWILQA	-1.02
HMVSLLDWAYKQVRRMLFSGDLPQGQKIVVAQLANQLSISPTPVKEALNRLAVEGLLEAVPRRGFQVR	-0.229
HMTAVVPNFKGKLISELSNFVADKNVRYTIIDSIYDPEEKSGIVIKQDPEEKTQVKHNRIIYLYVTST	-1.53
HMEHLTATERHLVAYLEAHLGQVPSLSITKLSQEANVSTASIVRTMKKLGYDGFTAFKHAIKQQLR	-1.77
HMYRPLYQQVYDFLVKQIAAGEWGPGESLPSEQALAGRLNVSQGTVRKALDALAADSLIDRRQGKGTYVAE	-0.0221

Sequence	soluble fraction (log2)
HMNTLLGLSNSFQDNKDLENANSISRRFISYRPRSEAELRIRLLKVFSHEIVLESVAQMYREGLLNDQRF	-3.33
HMGSREVPFSDFISKVESGSVLEVVLRGRQVEGLTDANERFQTQIPNYPALFEILERNQVRTRVEPT	0.0852
HMEREQNIAQGREVVQRELKRLGLTDVFTVEDIGRALKFDDIDEFLSKVGFGDIQTAKITGAIALMQQALR	0.0611
HMSSRNLIIFYDSPQAENALLATAERYGAILLHHYRNLHGIAVAIPADKDMAQAVTYFSRQPGVRQV	-0.803
HMAKRTVPSVAEAIDNFRRQHRRMPSYAEMLPLLGVRSKSVVHFWINKLLENGLLEKDDKGYLTPGS	-0.00958
HMNFHLEHHIAELLYRSIRGELSDFERQELNQWRSDSPMHETLFMRLQDDEYIDEELGVFIK	-1.99
HMVAGGTVSRKLSIETGLPKRKSLIGSWLDQNSVWHNIISVRHRNGYGDGVNYGFYLRSLLTSEGNLAW	-0.114
HMEKPTRNKLVEIIIQNKNVTTEQMANLLNISRRAVAKHIKKLQEEGIIRRIGPDFGGHWEIVK	0.0258
HMSAGKKSFTNSEFRRFLDALGEGLIVKHKKLGEGVVVEIRGDKAVIQFGDEQRLYELKTLYEYDLLR	-0.12
HMAEQLGNSRTANMVMLGAMIERTGVISIDSAMEALKATFGPKKEHLLPINRQAMEAGAAAARAV	0.303
HMGGVSTDKPLNWDADGTSKLTQEQIDYLRSTYDLSDMSKQDYYDLMADLTNMNAISIKDVISQYVK	-0.0536
HMFSDDEINRLKARDSILVNLRDSEKQVWELYTDGKTVQNIANQLNKHKQSISATIINIKNKISRKQNMLK	-0.534
HMKKDDLKQINGIGTTIEKKLNEIDIYNFYQISNLSKEDIETISEKIKTFPGKIERDNWVGQAQELL	0.0191
HMSRESNISTGRQLLEAQLPTWGYKKVEDIPSKQMKTALDAFNYKDVESLLQGLGEGSVALTTALRRLMP	0.313
HMSDDLIILGYSMLNNALKAFHIDPDSIKKKHWDKLAQDYHLKNKNQILTDIALGKRVNIMVAHQLTTIMD	-0.633
HMENEIPVPELVGMSEADAAAKLASLGLERDTQREATADEESVGKVLRQEPTPGEYVDEGHKVTIWVGE	-0.0704
HMHLTNIPKGFTPSFDTKQWIVEEFGERYNYDNELKIFINHYRASGTTKSDWQYAFRSWLLRAKKFT	-2.32
HMPVEHVWHIAENGQTSGPYSKARMGRMAQEGQLTRDTHVWTPGQDGWMRAGDVTELAQLFT	0.0486
HMEHTPHGVALLRTLMDQYGLKAADLANELGSKSNVSNILNGRRALTVSHIKMLAERFNLPADAFI	-0.914
HMIRILIVDDSAFMRKLLSDVFEEDKNFVVVDTARNGQDAVEKVKRLKPDLVTMDVEMPVMDGLTAVEIIM	-0.36
HMFGSKDVKRAIEDYAAAMSSQPRALSAPQRKVLIRHLATSGLLQLRGAAKIVADELGISRASVYNALKV	-0.436
HMLMKPQKTRDVLRYLKSIGWVRLRGGQGSHEIWGLPDGSIRAVIPAGHREISAGVLMQLKRAGVDVPTQW	-0.557
HMKTSVGSKMMVMANNLSIRKSANLLSEKLADLSKGDMVEYISSTNGWNKVRYNGYVGYVSSYYLKDTGEV	-0.738
HMTYQTVRYGSTGSAVRQLQSALNQKGYQLSEDGIFGAKTRAAVRDYQKKNGLLLDGIAGSQTWNHLMS	0.224
HMVAPPILNITTHIFAEEADLRMVMINGVTRREGDSLGENHRLLEITERGLILIFHNKQYTLDV	-3.68
HMGKNIQAIRYKNNMTQDQVVAKLNLMGISITKSTYAKLETNRMNIKASELVALAKLFHTDINAFFSG	-3.24
HMSNLNHSFQYKKNIGRKISLTYLGRDNESISKIYELIDSNDSGILVKNKNVEIFIHYEKIVSAKIKVS	-0.943
